The values below come from PMC6747400, “Mismatch Recognition by Saccharomyces cerevisiae Msh2-Msh6: Role of Structure and Dynamics”.

Positions count from the first letter of the chain named.

Data set [1] deals with T1, Msh2;Msh6 (Saccharomyces cerevisiae;Saccharomyces …, UniProt P25847;Q03834 1-964;1-1242, |). In words: fluorescence anisotropy; Fluorescence/FRET: 10 mM sodium phosphate pH 7.5, 100 mM NaCl, 5 mM MgCl2, 10 C (10 nM DNA for anisotropy); EMSA: 20 mM Tris-Cl pH 7.5, 100 mM NaCl, 5 mM MgCl2, 2% ficoll, 4 C, 10 nM DNA. The conditions noted are these: protein: recombinant;recombinant, tags: ;, copies: 1;1, blunt. (Polarisation of emitted light reports the rotation of a fluorescent probe.)

Data set [2] addresses T1, Msh2;Msh6. In words: fluorescence anisotropy; Table 1 prints this value in the intensity column of +T_6-MI; Fluorescence/FRET: 10 mM sodium phosphate pH 7.5, 100 mM NaCl, 5 mM MgCl2, 10 C (10 nM DNA for anisotropy); EMSA: 20 mM Tris-Cl pH 7.5, 100 mM NaCl, 5 mM MgCl2, 2% ficoll, 4 C, 10 nM DNA. The conditions noted are these: protein: recombinant;recombinant; tags: ;; copies: 1;1; label: 5' Alexa Fluor 594 on strand 1; blunt, unpaired T14 in strand 1.

Data set [3] concerns the target T1, Msh2;Msh6. In words: fluorescence anisotropy; text gives error 6.9; Fluorescence/FRET: 10 mM sodium phosphate pH 7.5, 100 mM NaCl, 5 mM MgCl2, 10 C (10 nM DNA for anisotropy); EMSA: 20 mM Tris-Cl pH 7.5, 100 mM NaCl, 5 mM MgCl2, 2% ficoll, 4 C, 10 nM DNA. The following applies: protein: recombinant;recombinant; tags: ;; copies: 1;1; label: 6-MI internal; blunt, 6-MI:A mismatch.

Data set [4] concerns the target T1, Msh2;Msh6. In words: fluorescence intensity; Fluorescence/FRET: 10 mM sodium phosphate pH 7.5, 100 mM NaCl, 5 mM MgCl2, 10 C (10 nM DNA for anisotropy); EMSA: 20 mM Tris-Cl pH 7.5, 100 mM NaCl, 5 mM MgCl2, 2% ficoll, 4 C, 10 nM DNA. The conditions noted are these: protein: recombinant;recombinant, tags: ;, copies: 1;1, label: 6-MI internal, blunt. For orientation: Mobility shift assays separate free from complexed probe on a gel.

In data set [5] the target is T1, Msh2;Msh6. In words: fluorescence anisotropy; Figure S2 legend gives 92.1 ± 13.9; Fluorescence/FRET: 10 mM sodium phosphate pH 7.5, 100 mM NaCl, 5 mM MgCl2, 10 C (10 nM DNA for anisotropy); EMSA: 20 mM Tris-Cl pH 7.5, 100 mM NaCl, 5 mM MgCl2, 2% ficoll, 4 C, 10 nM DNA. The conditions noted are these: protein: recombinant;recombinant; tags: ;; copies: 1;1; label: 5' Alexa Fluor 647 on strand 1; blunt homoduplex.

T1 sequence (P25847 whole entry, chain 1 of 2): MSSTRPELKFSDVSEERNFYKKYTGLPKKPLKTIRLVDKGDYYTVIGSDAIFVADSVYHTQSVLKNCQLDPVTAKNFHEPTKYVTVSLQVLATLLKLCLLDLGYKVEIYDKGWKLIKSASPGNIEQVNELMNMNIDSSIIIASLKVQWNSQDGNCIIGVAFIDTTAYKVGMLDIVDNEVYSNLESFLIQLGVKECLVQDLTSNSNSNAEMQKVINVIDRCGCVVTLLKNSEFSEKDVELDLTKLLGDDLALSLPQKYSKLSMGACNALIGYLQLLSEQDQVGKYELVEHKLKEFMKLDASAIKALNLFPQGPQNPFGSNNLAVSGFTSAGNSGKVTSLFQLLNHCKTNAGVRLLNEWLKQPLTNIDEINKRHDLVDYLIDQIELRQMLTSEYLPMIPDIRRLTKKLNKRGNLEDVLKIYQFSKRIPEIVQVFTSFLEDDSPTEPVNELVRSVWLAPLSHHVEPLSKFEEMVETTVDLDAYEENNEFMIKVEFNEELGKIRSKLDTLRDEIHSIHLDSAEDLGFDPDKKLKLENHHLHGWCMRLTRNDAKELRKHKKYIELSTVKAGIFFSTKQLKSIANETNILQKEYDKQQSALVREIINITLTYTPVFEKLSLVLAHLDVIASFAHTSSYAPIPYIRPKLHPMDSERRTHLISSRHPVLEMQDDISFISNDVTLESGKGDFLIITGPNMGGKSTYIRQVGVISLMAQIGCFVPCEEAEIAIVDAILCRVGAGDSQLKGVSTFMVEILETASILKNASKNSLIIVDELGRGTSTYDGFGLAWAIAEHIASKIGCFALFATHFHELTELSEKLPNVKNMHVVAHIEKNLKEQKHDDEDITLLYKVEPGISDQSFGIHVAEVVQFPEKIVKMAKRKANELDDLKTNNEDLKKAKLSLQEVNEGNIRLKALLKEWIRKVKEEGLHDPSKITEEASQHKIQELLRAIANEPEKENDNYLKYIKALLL
T1 sequence (Q03834 whole entry, chain 2 of 2): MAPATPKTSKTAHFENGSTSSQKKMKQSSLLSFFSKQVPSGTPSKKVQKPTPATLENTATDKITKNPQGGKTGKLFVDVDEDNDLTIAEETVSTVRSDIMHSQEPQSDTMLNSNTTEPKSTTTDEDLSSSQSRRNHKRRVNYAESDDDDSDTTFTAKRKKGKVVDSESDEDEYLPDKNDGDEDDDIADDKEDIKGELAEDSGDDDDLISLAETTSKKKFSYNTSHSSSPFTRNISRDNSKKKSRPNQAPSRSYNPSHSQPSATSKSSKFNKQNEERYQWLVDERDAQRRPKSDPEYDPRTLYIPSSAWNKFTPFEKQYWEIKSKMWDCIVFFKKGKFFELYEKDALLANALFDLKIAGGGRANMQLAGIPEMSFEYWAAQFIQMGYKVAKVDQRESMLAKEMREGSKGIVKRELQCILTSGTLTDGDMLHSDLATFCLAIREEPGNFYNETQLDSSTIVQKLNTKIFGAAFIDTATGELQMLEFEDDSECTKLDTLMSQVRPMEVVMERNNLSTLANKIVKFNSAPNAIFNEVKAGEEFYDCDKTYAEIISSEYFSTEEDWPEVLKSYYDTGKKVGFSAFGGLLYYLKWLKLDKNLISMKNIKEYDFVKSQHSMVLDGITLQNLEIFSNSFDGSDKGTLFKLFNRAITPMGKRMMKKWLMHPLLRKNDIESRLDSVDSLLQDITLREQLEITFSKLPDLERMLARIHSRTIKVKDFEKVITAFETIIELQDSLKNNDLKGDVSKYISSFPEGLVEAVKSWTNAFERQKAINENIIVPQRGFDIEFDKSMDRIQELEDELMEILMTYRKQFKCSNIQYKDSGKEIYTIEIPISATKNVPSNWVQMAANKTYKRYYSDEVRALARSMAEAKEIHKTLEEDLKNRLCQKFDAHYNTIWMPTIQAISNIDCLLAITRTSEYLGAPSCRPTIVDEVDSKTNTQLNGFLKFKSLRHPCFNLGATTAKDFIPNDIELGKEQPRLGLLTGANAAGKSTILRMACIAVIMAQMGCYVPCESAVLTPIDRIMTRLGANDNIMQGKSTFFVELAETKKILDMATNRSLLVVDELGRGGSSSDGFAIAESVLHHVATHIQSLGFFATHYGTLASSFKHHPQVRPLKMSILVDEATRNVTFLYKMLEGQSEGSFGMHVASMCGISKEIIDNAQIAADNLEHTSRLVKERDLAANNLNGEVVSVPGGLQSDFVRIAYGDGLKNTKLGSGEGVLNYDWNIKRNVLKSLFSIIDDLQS

B1: 6-MI:C (dsDNA)
DNA 1: TATGCAGTCACTATGAATCAACTACTTAGATGGT
DNA 2: ACCATCTAAGTAGTTGATTCATAGTGACTGCATA
modifications: 6-MI replaces G15 of strand 1 (F, written G)
Take B1: the Kd in the data set with Msh2;Msh6 [1] (label: 6-MI internal, 34 bp homoduplex) was 122 ± 12.1 nM.

B2: 6-MI:T (dsDNA)
DNA 1: B1 DNA 1
DNA 2: B1 DNA 2 with C20T
modifications: 6-MI replaces G15 of strand 1 (F, written G)
Turning to B2, in the data set with Msh2;Msh6 [1] (label: 6-MI internal, 6-MI:T mismatch), the Kd was 13.7 ± 3.4 nM.

B3: G:G end-labeled (dsDNA)
DNA 1: B1 DNA 1
DNA 2: B1 DNA 2 with C20G
modifications: 5' amino C6
In the case of B3, in the data set with Msh2;Msh6 [1] (label: Alexa Fluor 594 or 647, G15:G mismatch), the Kd was determined as 15.6 ± 3.4 nM.

B4: T:T_6-MI (dsDNA)
DNA 1: B1 DNA 1
DNA 2: B1 DNA 2 with A21T
modifications: 6-MI replaces G15 of strand 1 (F, written G)
Consider B4, for which, in the data set with Msh2;Msh6 [1] (label: 6-MI internal, T14:T mismatch), the equilibrium dissociation constant (Kd) was determined as 77.5 ± 20 nM.

B5: +T_AF594 (dsDNA)
DNA 1: B1 DNA 1
DNA 2: ACCATCTAAGTAGTTGATTCTAGTGACTGCATA
modifications: 5' amino C6 on strand 1
Turning to B5, the equilibrium dissociation constant (Kd) in the data set with Msh2;Msh6 [2] was determined as 18.1 ± 2.6 nM.

B6: 6-MI:A (dsDNA)
DNA 1: B1 DNA 1
DNA 2: B1 DNA 2 with C20A
modifications: 6-MI replaces G15 of strand 1 (F, written G)
Take B6: the Kd with Msh2;Msh6 [3] was 25.8 ± 12.3 nM.

B7: +T_6-MI (dsDNA)
DNA 1: B1 DNA 1
DNA 2: B5 DNA 2
modifications: 6-MI replaces G15 of strand 1 (F, written G)
On to B7, for which, in the data set with Msh2;Msh6 [1] (label: 6-MI internal, unpaired T14 in strand 1 (34/33 nt)), the Kd was 16 ± 2.9 nM.

B8: T:G_6-MI (dsDNA)
DNA 1: B1 DNA 1
DNA 2: B1 DNA 2 with A21G
modifications: 6-MI replaces G15 of strand 1 (F, written G)
Regarding B8, the Kd with Msh2;Msh6 [1] (label: 6-MI internal, T14:G mismatch) was found to be 25.9 ± 1.2 nM.

B9: 6-MI_A:C (dsDNA)
DNA 1: B1 DNA 1
DNA 2: B1 DNA 2 with T19C
modifications: 6-MI replaces G15 of strand 1 (F, written G)
For B9, the Kd with Msh2;Msh6 [1] (label: 6-MI internal, A16:C mismatch) was determined as 13.3 ± 3.6 nM; with Msh2;Msh6 [4] (A16:C mismatch), 17.1 ± 4.3 nM.

B10: G:C_AF647 (dsDNA)
DNA 1: B1 DNA 1
DNA 2: B1 DNA 2
modifications: 5' amino C6 on strand 1
Consider B10, for which the dissociation constant Kd in the data set with Msh2;Msh6 [5] turned out to be 106 ± 13.9 nM.

B11: A:A_6-MI (dsDNA)
DNA 1: B1 DNA 1 with T26A
DNA 2: B1 DNA 2
modifications: 6-MI replaces G10 of strand 2 (F, written G)
For the molecule B11, the Kd with Msh2;Msh6 [1] (label: 6-MI internal, A26:A mismatch) was found to be 11.3 ± 3.1 nM; with Msh2;Msh6 [4] (A26:A mismatch) it was 10.4 ± 2.4 nM.

B12: G:T_AF594 (dsDNA)
DNA 1: B1 DNA 1
DNA 2: B1 DNA 2 with C20T
modifications: 5' amino C6 on strand 1
As to B12, the Kd with Msh2;Msh6 [1] (label: 5' Alexa Fluor 594 on strand 1, G15:T mismatch) came out at 13.3 ± 3.9 nM.

B13: 6-MI_A:A (dsDNA)
DNA 1: B1 DNA 1
DNA 2: B1 DNA 2 with T19A
modifications: 6-MI replaces G15 of strand 1 (F, written G)
With B13, the Kd in the data set with Msh2;Msh6 [1] (label: 6-MI internal, A16:A mismatch) was 7.9 ± 2 nM; in the data set with Msh2;Msh6 [4] (A16:A mismatch) it was 19.1 ± 3.5 nM.

B14: 6-MI_A:G (dsDNA)
DNA 1: B1 DNA 1
DNA 2: B1 DNA 2 with T19G
modifications: 6-MI replaces G15 of strand 1 (F, written G)
Consider B14, for which the equilibrium dissociation constant (Kd) in the data set with Msh2;Msh6 [1] (label: 6-MI internal, A16:G mismatch) was 9 ± 2.8 nM; with Msh2;Msh6 [4] (A16:G mismatch) it was 11.8 ± 2.8 nM.

B15: T:C_6-MI (dsDNA)
DNA 1: B1 DNA 1
DNA 2: B1 DNA 2 with A21C
modifications: 6-MI replaces G15 of strand 1 (F, written G)
B15: the dissociation constant (Kd) with Msh2;Msh6 [1] (label: 6-MI internal, T14:C mismatch) came out at 113 ± 18.7 nM.

B16: 6-MI:G (dsDNA)
DNA 1: B1 DNA 1
DNA 2: B1 DNA 2 with C20G
modifications: 6-MI replaces G15 of strand 1 (F, written G)
Regarding B16, the dissociation constant Kd in the data set with Msh2;Msh6 [1] (label: 6-MI internal, 6-MI:G mismatch) is 10.4 ± 5.8 nM.

As usually defined, the Kd is a measure of binding affinity in units of concentration.
